Test results as given in patent US20230357395A1 (MARENGO THERAPEUTICS, published 2023).
Numbering of substitutions follows the chain as printed.

T1: human NKp30 (construct not named) (human, UniProt O14931 19-135, limits assumed)
T1 construct: also called hNKp30
T1 sequence (looked up): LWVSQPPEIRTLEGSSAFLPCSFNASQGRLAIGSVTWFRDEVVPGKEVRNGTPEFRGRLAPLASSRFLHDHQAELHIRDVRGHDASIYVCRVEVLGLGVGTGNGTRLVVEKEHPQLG

T2: NKp30 on KHYG-1 NK cells (human, UniProt O14931 19-201)
T2 construct: whole, on cells; also called NK cell line KHYG-1; NKp30+ KHYG-1 cells
T2 sequence (looked up): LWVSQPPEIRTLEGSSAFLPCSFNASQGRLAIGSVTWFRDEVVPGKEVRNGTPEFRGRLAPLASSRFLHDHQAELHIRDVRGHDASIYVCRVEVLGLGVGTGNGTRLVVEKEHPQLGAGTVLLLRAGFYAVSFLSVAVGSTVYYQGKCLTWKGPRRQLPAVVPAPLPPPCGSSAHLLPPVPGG

B1: BIM0460 (Example 8; format not stated) (antibody, V domains shown)
VH: QVQLVQSGAEVKKPGSSVKVSCKASGYTFTGYVMHWVRQAPGQGLEWMGFINPYNDDIQSNERFRGRVTITSDKSTTTAYMELSSLRSEDTAVYYCARGAGYNFDGAYRFFDFWGQGTLVTVSS
VL: DVVMTQSPLSLPVTLGQPASISCRSSQRLVHSNGNTYLHWYQQRPGQSPRLLIYRVSNRFPGVPDRFSGSGSGTDFTLKISRVEAEDVGVYFCSQSTHVPYTFGGGTKVEIK
notes: Humanized JOVI.1 variant
B2: BJM0578 (Example 8; format not stated) (antibody, V domains shown)
VH: QVQLVQSGAEVKKPGSSVKVSCKASGYTFTGYVMHWVRQAPGQGLEWMGFIIPIFGTANYAQKFQGRVTITSDKSTTTAYMELSSLRSEDTAVYYCARGAGYNFDGAYRFFDFWGQGTLVTVSS
VL: B1 VL
notes: Germlined variant of BIM0460
B3: BKM0098 (anti-TRBC2/NKp30 bispecific antibody) (bispecific antibody, human IgG1, kappa, N297A)
heavy: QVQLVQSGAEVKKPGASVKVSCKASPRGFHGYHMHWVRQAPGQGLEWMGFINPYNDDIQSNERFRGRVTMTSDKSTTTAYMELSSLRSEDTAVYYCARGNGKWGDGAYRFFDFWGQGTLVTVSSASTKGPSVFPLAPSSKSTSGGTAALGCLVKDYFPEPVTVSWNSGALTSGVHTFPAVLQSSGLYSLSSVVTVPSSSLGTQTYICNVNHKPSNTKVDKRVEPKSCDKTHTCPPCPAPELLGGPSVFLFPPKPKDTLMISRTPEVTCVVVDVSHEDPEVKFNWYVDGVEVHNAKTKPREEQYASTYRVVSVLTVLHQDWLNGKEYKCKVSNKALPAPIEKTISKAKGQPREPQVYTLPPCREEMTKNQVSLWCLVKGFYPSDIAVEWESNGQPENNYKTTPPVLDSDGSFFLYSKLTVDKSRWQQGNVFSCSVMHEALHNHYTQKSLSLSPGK
light: DVVMTQSPLSLPVTPGEPASISCRSSQNLVHSNGRTYLQWYLQKPGQSPQLLIYRVSNRFPGVPDRFSGSGSGTDFTLKISRVEAEDVGVYFCSQSTHVPYTFGGGTKVEIKRTVAAPSVFIFPPSDEQLKSGTASVVCLLNNFYPREAKVQWKVDNALQSGNSQESVTEQDSKDSTYSLSSTLTLSKADYEKHKVYACEVTHQGLSSPVTKSFNRGEC
scFv: EIQLLESGGGLVQPGGSLRLSCAVSGFSITTTGYHWNWVRQAPGKGLEWVGYIYSSGSTSYNPSLKSRFTISRDTSKNTFYLQMNSLRAEDTAVYYCARGDWHYFDYWGQGTMVTVSSGGGGSGGGGSGGGGSGGGGSDSVTTQSPLSLPVTLGQPASISCSGEKLSDKYVHWYQQRPGQSPRMLIYENDRRPSGVPDRFSGSNSGNDATLKISRVEAEDVGVYFCQFWDSTNSAVFGGGTKVEIKDKTHTCPPCPAPELLGGPSVFLFPPKPKDTLMISRTPEVTCVVVDVSHEDPEVKFNWYVDGVEVHNAKTKPREEQYASTYRVVSVLTVLHQDWLNGKEYKCKVSNKALPAPIEKTISKAKGQPREPQVCTLPPSREEMTKNQVSLSCAVKGFYPSDIAVEWESNGQPENNYKTTPPVLDSDGSFFLVSKLTVDKSRWQQGNVFSCSVMHEALHNHYTQKSLSLSPGK
notes: Anti-TRBC2 Fab-Fc and anti-NKp30 scFv-Fc; also called Anti-TRBC2-NKp30-BKM0098; Parental Bispecific
B4: BKM0240 (anti-TRBC2/NKp30 bispecific antibody) (bispecific antibody, human IgG1, kappa, N297A)
heavy: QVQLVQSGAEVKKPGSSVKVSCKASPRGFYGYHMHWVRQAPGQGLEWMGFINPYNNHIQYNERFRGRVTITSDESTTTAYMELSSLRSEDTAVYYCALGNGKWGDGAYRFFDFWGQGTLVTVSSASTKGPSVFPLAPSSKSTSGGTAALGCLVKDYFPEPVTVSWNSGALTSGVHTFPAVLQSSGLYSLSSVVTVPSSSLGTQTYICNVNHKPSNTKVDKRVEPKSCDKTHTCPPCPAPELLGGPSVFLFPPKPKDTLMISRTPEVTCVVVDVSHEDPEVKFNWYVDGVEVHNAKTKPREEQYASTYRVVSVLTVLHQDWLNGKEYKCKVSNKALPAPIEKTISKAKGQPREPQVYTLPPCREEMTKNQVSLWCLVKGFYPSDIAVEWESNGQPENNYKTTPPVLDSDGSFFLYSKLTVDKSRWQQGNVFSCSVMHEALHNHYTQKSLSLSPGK
light: B3 light with P15L, E17Q, Q27K, L42Q, K44R, Q50R, H98R, V99E
scFv: B3 scFv
notes: also called Parental Bispecific
B5: BKM0312 (anti-TRBC2/NKp30 bispecific antibody) (bispecific antibody)
chain 1: not shown
chain 2: B3 light with P15L, E17Q, Q27K, L42Q, K44R, Q50R, H98R, V99E
chain 3: B3 scFv
B6: BKM0311 (anti-TRBC2/NKp30 bispecific antibody) (bispecific antibody, human IgG1, kappa, N297A)
heavy: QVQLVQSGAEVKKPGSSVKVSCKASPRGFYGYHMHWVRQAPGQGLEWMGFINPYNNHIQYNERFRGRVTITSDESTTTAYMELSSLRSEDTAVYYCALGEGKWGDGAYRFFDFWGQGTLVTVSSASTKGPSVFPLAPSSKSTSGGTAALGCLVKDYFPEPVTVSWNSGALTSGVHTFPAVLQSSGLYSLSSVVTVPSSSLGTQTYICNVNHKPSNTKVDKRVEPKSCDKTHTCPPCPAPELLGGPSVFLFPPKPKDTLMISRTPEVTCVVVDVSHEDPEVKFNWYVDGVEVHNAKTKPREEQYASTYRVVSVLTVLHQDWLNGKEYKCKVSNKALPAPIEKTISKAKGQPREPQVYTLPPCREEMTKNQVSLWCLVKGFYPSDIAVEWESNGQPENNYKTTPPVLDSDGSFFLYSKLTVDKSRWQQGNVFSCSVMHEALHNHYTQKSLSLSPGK
light: B3 light with P15L, E17Q, Q27K, L42Q, K44R, Q50R, H98R, V99E
scFv: B3 scFv

biological target: T3, human TRBC1 (construct not named) (human, UniProt P01850 1-129, limits assumed); assay: method not stated
T3 construct: also called hTRBC1
T3 sequence (P01850 1-129 limits assumed): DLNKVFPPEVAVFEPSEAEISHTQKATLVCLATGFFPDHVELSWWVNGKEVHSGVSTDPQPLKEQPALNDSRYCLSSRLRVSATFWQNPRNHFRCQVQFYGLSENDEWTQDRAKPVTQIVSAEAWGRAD

| Kd | Binder |
| --- | --- |
| 17 nM | B1 |
| 110 nM | B2 |

biological target: T4, human TRBC2 (construct not named) (human, UniProt A0A5B9 1-129, limits assumed); assay: SPR, bispecific captured via anti-human Fc on CM5, hTRBC2 from 125 nM in two-fold dilutions, 1:1 fit
T4 construct: also called hTRBC2
Description: (§1) In this example, surface plasmon resonance assay was performed to check binding of anti-TRBC2xNKp30 bispecific antibodies (bispecifics) to either hTRBC2, hTRBC1 or hNKp30 proteins. […] The bispecific antibodies may or may not have an N297A mutation in their Fc regions. FIG. 31B represents a design for monovalent TRBC2 control. Briefly, TRBC2xNKp30 bispecifics at 2 ug/mL were immobilized on CM5 chip via anti-human Fc antibody to 70 RU. Human TRBC2 or human TRBC1 antigens were diluted to 125 nM and then serially diluted two-fold. Association was 300 seconds and dissociation were 600 seconds. This assay was run in 1 x HBS-EP+ Buffer pH 7.4 and 25 C. The data was fit using a 1:1 binding model assess binding of bispecifics to NKp30, human NKp30 at 2 ug/mL was immobilized on CM5 chip via Anti-mouse Fc antibody to 70 RU. TRBC2xNKp30 bispecifics were diluted to 50 nM and then serially diluted two-fold. Association was 300 seconds and dissociation were 600 seconds. This assay was run in 1 x HBS-EP+ Buffer pH 7.4 and 25 C. The data was fit using a 1:1 binding model.

T4 sequence (A0A5B9 1-129 limits assumed): as the sequence (P01850 1-129 limits assumed) above, with N3K, K4N, E9K, F36Y counted along it

| Kd | Binder |
| --- | --- |
| 89 nM | B3 |
| 28 nM | B4 |
| 31 nM | B5 |
| 9.2 nM | B6 |

biological target: T5, TRBC2 on TRBC2+ cell lines (HPB-ALL; HH; HDMAR2) (human, UniProt A0A5B9 1-178); assay: flow cytometry on TRBC2+ HPB-ALL cells, antibody 200 nM to 0.003387 nM
T5 construct: whole, on cells; also called TRBC2+ HPB-ALL cells
Description: (§2) A flow cytometry-based assay was performed to check binding of anti-TRBC2x NKp30 to either TRBC2+ HPB-ALL cells, TRBC1+ Jurkat cells or NKp30+ KHYG-1 cells.
(§3) Each antibody was diluted to 200 nM and then serially diluted three-fold down to 0.003387 nM. Antibodies were incubated with each cell line for 1 hour at 4C. […] Zombie UV (BioLegend 423107) viability dye was added to the cells 1:1000 and incubated for 30 minutes at room temperature. Cells were analyzed on the CytoFlex LX flow cytometer.

T5 sequence (A0A5B9 whole entry): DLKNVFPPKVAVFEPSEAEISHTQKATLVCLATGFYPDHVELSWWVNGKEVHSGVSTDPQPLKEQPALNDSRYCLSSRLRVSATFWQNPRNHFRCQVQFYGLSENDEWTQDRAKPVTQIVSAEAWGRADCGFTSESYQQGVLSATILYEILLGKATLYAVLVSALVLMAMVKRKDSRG

| EC50 | Binder |
| --- | --- |
| 4 nM | B3 |
| 1.5 nM | B4 |
| 1.1 nM | B5 |
| 0.33 nM | B6 |

biological target: T1, human NKp30 (construct not named); assay: SPR, human NKp30 captured via anti-mouse Fc on CM5, bispecific from 50 nM in two-fold dilutions, 1:1 fit
Description: as §1

| Kd | Binder |
| --- | --- |
| 0.63 nM | B3 |
| 0.58 nM | B4 |
| 0.54 nM | B5 |
| 0.63 nM | B6 |

biological target: T2, NKp30 on KHYG-1 NK cells; assay: flow cytometry on NKp30+ KHYG-1 cells, antibody 200 nM to 0.003387 nM
Description: as §2, §3

| EC50 | Binder |
| --- | --- |
| 4 nM | B3 |
| 1.5 nM | B4 |
| 1.1 nM | B5 |
| 0.33 nM | B6 |
